Source: publication PMC3154637 (Structure (London, England : 1993), 2011)

Key:
MBP-AMSH(1–206) = MBP-AMSH(1–206) (human, UniProt O95630 1-206); test: SPR
His-AMSHΔC-K88A = His-AMSHΔC-K88A (human, UniProt O95630 1-146, K88A); test: pull-down

Binder	Kd (MBP-AMSH(1–206)) [nM]	koff (MBP-AMSH(1–206)) [s⁻¹]	kon (MBP-AMSH(1–206)) [M⁻¹ s⁻¹]	binding result (His-AMSHΔC-K88A)
GST-CHMP1AΔN (domain or fragment, UniProt Q9HD42 123-196, looked up) DVHTSVMEDSMSSATTLTTPQEQVDSLIMQIAEENGLEVLDQLSQLPEGASAVGESSVRSQEDQLSRRLAALRN	1490	0.00581	3890	
GST-CHMP1BΔN (domain or fragment, UniProt Q7LBR1 126-199, looked up) DVQTQQMEDTMSSTTTLTTPQNQVDMLLQEMADEAGLDLNMELPQGQTGSVGTSVASAEQDELSQRLARLRDQV				binds
